Assay results reported in the supplement of paper PMC10567573.

B1: FEM1A (parent)
chain: PCCSSSPEEPLNGESYESCCPTSR

Variants of: B1
Experiment: protein stability index of a GFP-peptide fusion (GPS, HEK-293T) (PSI 1-6); higher = more stable
Details: c terminus: a fixed tail appended
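Also: lentivirally expressed fusions sorted by FACS into six bins by GFP to DsRed ratio, PSI derived from sequencing read proportions per bin multiplied by bin number.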

Point of comparison: C3T, protein stability index 5.06. Against it:
- P1C — lower, 1.83
- P1D — lower, 4.55
- P1E — lower, 4.44
- P1F — lower, 3.17
- P1G — lower, 4.6
- P1H — lower, 3.85
- P1I — lower, 3.97
- P1K — lower, 2.47
- P1L — lower, 3.69
- P1M — lower, 3.67
- P1N — lower, 3.96
- P1Q — lower, 3.95
- P1R — lower, 3.47
- P1S — lower, 3.54
- P1T — lower, 3.6
- P1V — lower, 3.84
- P1W — lower, 2.77
- P1Y — lower, 3.26
- C2D — higher, 5.12
- C2E — lower, 4.77
- C2F — lower, 4.55
- C2G — lower, 4.19
- C2H — lower, 4.79
- C2I — lower, 3.92
- C2K — lower, 4.65
- C2L — lower, 4.75
- C2M — lower, 4.98
- C2N — higher, 5.15
- C2P — higher, 5.66
- C2Q — lower, 4.89
- C2S — lower, 4.21
- C2T — higher, 5.23
- C2V — higher, 5.21
- C2W — lower, 4.37
- C2Y — lower, 4.62
- C3A — lower, 4.02
- C3D — higher, 5.82
- C3E — higher, 5.27
- C3F — lower, 4.83
- C3G — lower, 4.91
- C3H — lower, 4.85
- C3I — lower, 4.19
- C3K — lower, 4.7
- C3L — lower, 4.76
- C3M — lower, 5.05
- C3N — lower, 4.75
- C3P — lower, 4.95
- C3Q — higher, 5.4
- C3R — lower, 4.23
- C3S — higher, 5.22
- C3V — lower, 5
- C3W — lower, 4.79
- C3Y — lower, 4.66
- S4A — lower, 3.72
- S4C — lower, 1.94
- S4D — lower, 4.42
- S4E — lower, 3.87
- S4F — lower, 3.33
- S4G — lower, 3.5
- S4H — lower, 4.21
- S4I — lower, 3.81
- S4K — lower, 3.65
- S4L — lower, 2.98
- S4M — lower, 3.19
- S4N — lower, 3.95
- S4P — lower, 4.58
- S4Q — lower, 3.67
- S4R — lower, 3.14
- S4T — lower, 4.13
- S4V — lower, 4.1
- S4W — lower, 3.85
- S4Y — lower, 3.37
- S5A — lower, 3.49
- S5C — lower, 3.38
- S5D — lower, 4.85
- S5E — lower, 4.24
- S5F — lower, 2.48
- S5G — lower, 3.66
- S5H — lower, 4.12
- S5I — lower, 3.4
- S5K — lower, 2.85
- S5L — lower, 3.02
- S5M — lower, 2.53
- S5N — lower, 3.47
- S5P — lower, 3.49
- S5Q — lower, 3.6
- S5R — lower, 3.28
- S5T — lower, 3.9
- S5V — lower, 4.45
- S5W — lower, 3.02
- S5Y — lower, 2.6
- S6A — lower, 3.22
- S6C — lower, 3.63
- S6D — lower, 3.92
- S6E — lower, 4.01
- S6F — lower, 3.13
- S6G — lower, 3.53
- S6H — lower, 3.4
- S6I — lower, 3.7
- S6K — lower, 3.18
- S6L — lower, 2.91
- S6M — lower, 3.57
- S6N — lower, 3.81
- S6P — lower, 3.76
- S6Q — lower, 4.11
- S6R — lower, 3.66
- S6T — lower, 3.93
- S6V — lower, 3.8
- S6W — lower, 3.27
- S6Y — lower, 2.97
- P7A — lower, 3.34
- P7C — lower, 3.67
- P7D — lower, 4.65
- P7E — lower, 3.93
- P7F — lower, 3.51
- P7G — lower, 3.38
- P7H — lower, 3.37
- P7I — lower, 3.03
- P7K — lower, 3.65
- P7L — lower, 3.07
- P7M — lower, 3.11
- P7N — lower, 3.14
- P7Q — lower, 4.44
- P7S — lower, 3.62
- P7T — lower, 3.29
- P7V — lower, 4.45
- P7W — lower, 2.44
- P7Y — lower, 3.02
- E8A — lower, 2.87
- E8C — lower, 3.45
- E8D — lower, 3.51
- E8F — lower, 2.37
- E8G — lower, 3.06
- E8H — lower, 3.33
- E8I — lower, 3.06
- E8K — lower, 2.69
- E8L — lower, 2.81
- E8M — lower, 2.48
- E8N — lower, 3.35
- E8P — lower, 3.47
- E8Q — lower, 3.4
- E8R — lower, 2.88
- E8T — lower, 3.03
- E8V — lower, 2.38
- E8W — lower, 1.63
- E8Y — lower, 2.65
- E9A — lower, 3.39
- E9C — lower, 3.21
- E9D — lower, 3.64
- E9F — lower, 2.87
- E9G — lower, 3.67
- E9H — lower, 3.67
- E9I — lower, 3.33
- E9K — lower, 3.41
- E9L — lower, 2.69
- E9M — lower, 2.69
- E9N — lower, 3.64
- E9P — lower, 3.36
- E9Q — lower, 3.52
- E9R — lower, 3.35
- E9S — lower, 2.88
- E9T — lower, 3.34
- E9V — lower, 3.08
- E9W — lower, 2.02
- E9Y — lower, 2.77
- P10A — lower, 4.07
